Results on two molecules are retold here after patent US20130171217A1, “ENZYMATIC PERACID GENERATION FOR USE IN SKIN CARE PRODUCTS” (E I DU PONT DE NEMOURS AND COMPANY, priority 2010, published 2013).

Data set [1] can be described thus: Retention of perhydrolase on hair detected by hydrolase activity. In kind it is binding. The conditions noted are these: for Activity in the first TWEEN®-20 wash / Activity retained on hair after 4 TWEEN® 20 washes / Activity unbound: hydrolase activity; for Activity in the first TWEEN®-20 wash: 1% TWEEN®-20; for Activity retained on hair after 4 TWEEN® 20 washes: 4 washes 1% TWEEN®-20 and 2 buffer washes; for Activity unbound: ~20 mg hair, binding 30 min; for 100% activity (hydrolase activity added to the tube): tube containing ~20 mg of hair, not subjected to washes. How it is done:
For hair binding experiments brown hair tresses (International Hair Importers and Products, Glensdale N.Y.) were used. The hair was washed with 2% SLES, rinsed extensively with deionized water and air dried.
Around 20 mg of 1 cm brown hair fragments was added in a 1.8-mL microfuge tube. Hydrolase assay buffer (1.2 mL) as added to the hair followed by the addition of the perhydrolase enzymes to the solution. The enzymes were allowed to bind the hair for 30 min with gentle agitation (24 rpm) on an Adams Nutator (model 1105, Becton Dickinson, Franklin Lakes, N.J.). No enzyme controls, with hair and without hair, were included in the binding experiment to account for non-enzymatic hydrolysis of the pNPA hydrolase reagent. After the binding step, a 1.0-mL aliquot of the binding buffer was transferred to a new tube to quantitate the amount of unbound enzyme. Additional binding buffer was removed and the hair fragments were washed 4 times with 1 mL of 1% TWEEN®-20 in hydrolase buffer, followed by 2 washes with 1 mL each in hydrolase buffer. The hair fragments were then resuspended in 1 mL of hydrolase assay and the hydrolase activity that remained bound to the hair was measured. The C277S (“PAH”) variant of Thermotoga maritima perhydrolase (SEQ ID NO: 293) was used as a control for an un-targeted perhydrolase.

Data set [2] in a line: One-step procedure on hair tresses, tress tensile strength. The note with it: 10 μg/mL HC1121, pH 6.6, 50 mM phosphate, 8 cycles.
The nature of data set [3]: Assay for bound perhydrolase enzyme activity after treatment cycles (ABTS). In kind it is binding. How it is done:
The enzyme used in the following example was HC1121 (T. maritima C277S-HC263; SEQ ID NO: 288) and concentration used was 2500 μg/mL (E/H=10*). Enzyme solution was made in 5% TWEEN®-20 surfactant in 50 mM citrate buffer at pH 6. Approximately 0.8 mL of the enzyme solution was applied on ˜200 mg hair samples (4 test tresses) for 10 minutes. H2O2 and triacetin, formulations were made according to Example 24, in 20% LUBRIDERM® lotion in 50 mM citrate buffer at pH 6. After application of 400 μL each of the reagents, the treatment was allowed to continue for 20 minutes after which the hair was rinsed with tap-water and allowed to dry. Before proceeding with the next cycle the sample was subjected to the surfactant wash with 5% TWEEN®-20 in 50 mM citrate buffer at pH 6 and rinsed with tap-water.
After treatment for a defined number of cycles, 10 mg of hair was cut from each tress and placed into 2 mL microcentrifuge tubes (Eppendorf Protein LoBind; Eppendorf North America, Hauppauge, N.Y.). To each tube was added 480 uL of PAH buffer (50 mM potassium phosphate pH 7.2), 14 μL of 30% hydrogen peroxide (Sigma 3410), and 6 μL triacetin (Sigma-Aldrich, W200700). The perhydrolase reaction was allowed to proceed for 10 minutes at 25° C. The reaction was stopped by diluting aliquots 10×, 100× and 1000× with 10 mM phosphoric acid. For detection, 50 μL of 1 M acetic acid, 50 μL of 40 mg/mL potassium iodide, and 50 μL of 4 mM ABTS (2,2′-azino-bis(3-ethylbenzthiazoline-6-sulphonic acid; Sigma, St Louis, Mo.) were added to 50 μL of the above dilutions. Color was allowed to develop for 10 minutes and read in a spectrophotometer at 405 nm. Values from no-enzyme controls were subtracted to yield values attributable only to enzyme activity. A standard curve of OD 405 nm vs PAA concentration in ppm yielded a conversion factor of 8.75, such that an OD 405 nm of 1.0 corresponded to approximately 8.75 ppm PAA. This value was then multiplied by the appropriate dilution to arrive at the PAA concentration in the perhydrolase reaction.

A short description of data set [4]: Compatibility of perhydrolase with commercial moisturizer lotion, PAA indicator strip. The class given is physicochemical. The note with it: ~0.1 mg/mL in lotion, room temperature (~21° C.). The procedure: Lotion “A” was prepared by mixing 0.7667 g of SUAVE® Advanced Therapy Moisturizer (Lot#12148JU41, Unilever, CT) with 40 μL of perhydrolase fusion C277S-HC263 (10 mg/mL) in a 2-mL microfuge using an overhead mixer at 200 rpm for about 3 min. The concentration of C277S-HC263 (SEQ ID NO: 288) was about 0.1 mg/mL in lotion A.
Two control samples, i.e., A-control1 and A-control2, were prepared by replacing perhydrolase (C277S-HC263; SEQ ID NO: 288) with same volume of DI water and 50 mM phosphate buffer (pH 8), respectively.
Solution “B” was made by combining 44 μl of triacetin, 899 μL of 50 mM, pH 8, phosphate buffer, and 57 μL of H2O2 (30 wt %). Solution B was freshly made every time just before running the PAA indicator strip test.
After a predetermined time, 50 μl of lotion “A” and 50 μl of solution “B” were mixed gently for about 1 min. PAA indicator strips were used to test for the presence of PAA in the mixture as described in Example 10.

The nature of data set [5]: Two-step treatment of hair tresses, color loss ΔE. The conditions noted are these: for Color loss ΔE: 0.75 M H2O2, 1 M TA; for ΔE of color loss: 2500 μg/mL. How it is done: After every fourth cycle the tresses were dried under air and color measurements were made using X-RITE® SP64 spectrophotometer (X-Rite, Grandville, Mich.) with 4 mm port. Color numbers were measured at D65/10° from reflectance, according to CIELAB76. Hair tresses (all 4 replicates) were placed under a card paper with punched out holes, making sure that the background was not visible. The port-hole of the spectrophotometer was centered on the hole to scan the hair sample underneath. The tress-bundle was turned over and placed under the card and an additional measurement was made. Average L*, a*, b* (color according to CIELAB76) values were recorded.
ΔE of color loss was calculated according to the following formula:
ΔE=√{square root over (((L1*−L0)̂2+(a1*−a0)̂2+(b1*−b0)̂2))}{square root over (((L1*−L0)̂2+(a1*−a0)̂2+(b1*−b0)̂2))}{square root over (((L1*−L0)̂2+(a1*−a0)̂2+(b1*−b0)̂2))}
L1*, a1* and b1* are L*, a* and b* values for a sample tress after treatment, L0*, a0* and b0* are L*, a* and b* values for untreated hair

The mark [6] stands for this setting: 200 mM TA/200 mM H2O2, 24 hr/cycle.

B1: C277S-HC263: C277S variant of Thermotoga maritima perhydrolase fused via a flexible linker to hair-binding domain HC263 (protein)
chain: MAFFDLPLEELKKYRPERYEEKDFDEFWEETLAESEKFPLDPVFERMESHLKTVEAYDVTFSGYRGQRIKGWLLVPKLEEEKLPCVVQYIGYNGGRGFPHDWLFWPSMGYICFVMDTRGQGSGWLKGDTPDYPEGPVDPQYPGFMTRGILDPRTYYYRRVFTDAVRAVEAAASFPQVDQERIVIAGGSQGGGIALAVSALSKKAKALLCDVPFLCHFRRAVQLVDTHPYAEITNFLKTHRDKEEIVFRTLSYFDGVNFAARAKIPALFSVGLMDNISPPSTVFAAYNYYAGPKEIRIYPYNNHEGGGSFQAVEQVKFLKKLFEKGGPGSGGAGSPGSAGGPGSPSAQSQLPDKHSGLHERAPQRYGPEPEPEPEPIPEPPKEAPVVIEKPKPKPKPKPKPPAHDHKNQKETHQRHAAGSGGGGSPHHHHHH
On to B1, for which the “Activity in the first TWEEN®-20 wash” value in data set [1] turned out to be 9%. In addition, in data set [1], the “Activity retained on hair after 4 TWEEN® 20 washes” value amounted to 54%. The Activity unbound in data set [1] is given as 52%. For the same molecule, in data set [1], the “100% activity (hydrolase activity added to the tube)” value was 53 µmol/min. The “Strength N/mg Hair, replicate1” value in data set [2] (setting [6]) worked out at 1.04 N/mg Hair. For the same molecule, the “Strength N/mg Hair, replicate2” value in data set [2] (setting [6]) worked out at 0.57 N/mg Hair; in data set [2] (500 mM TA/500 mM H2O2, 24 hr/cycle), 0.55 N/mg Hair. Moreover, the “OD 405nm” value worked out at 0.172 in data set [3] (10 mg hair after 1 cycle); 0.439 in data set [3] (10 mg hair after 4 cycles); 0.901 in data set [3] (10 mg hair after 8 cycles); 1.287 in data set [3] (10 mg hair after 12 cycles); 1.894 in data set [3] (10 mg hair after 16 cycles). Besides, the PAA in data set [3] (10 mg hair after 1 cycle, 10 min reaction) was 150.8 ppm; in data set [3] (10 mg hair after 4 cycles) it was 384.1 ppm; in data set [3] (10 mg hair after 8 cycles), 788.4 ppm; in data set [3] (10 mg hair after 12 cycles), 1126.1 ppm; in data set [3] (10 mg hair after 16 cycles), 1657 ppm. Also, the “time perhydrolase activity retained in SUAVE® moisturizer” value in data set [4] is listed as “at least 30 days”. Moreover, the “Color loss ΔE” value in data set [5] (750 μg/mL (E/H 3), 40 min/cycle) was found to be 8; in data set [5] (1500 μg/mL (E/H 5), 20 min/cycle) it was 7; in data set [5] (1750 μg/mL (E/H 7), 40 min/cycle), 10; in data set [5] (2500 μg/mL (E/H 10), 20 min/cycle), 10; in data set [5] (2500 μg/mL (E/H 10), 40 min/cycle) it was 9. Moreover, the “ΔE of color loss” value in data set [5] (4 cycles) was determined as 4; in data set [5] (8 cycles), 6; in data set [5] (12 cycles) it was 8; in data set [5] (16 cycles) it was 11.

B2: C277S: non-targeted C277S variant of the Thermotoga maritima perhydrolase, un-targeted control (protein, listed as Thermotoga maritima)
chain: MAFFDLPLEELKKYRPERYEEKDFDEFWEETLAESEKFPLDPVFERMESHLKTVEAYDVTFSGYRGQRIKGWLLVPKLEEEKLPCVVQYIGYNGGRGFPHDWLFWPSMGYICFVMDTRGQGSGWLKGDTPDYPEGPVDPQYPGFMTRGILDPRTYYYRRVFTDAVRAVEAAASFPQVDQERIVIAGGSQGGGIALAVSALSKKAKALLCDVPFLCHFRRAVQLVDTHPYAEITNFLKTHRDKEEIVFRTLSYFDGVNFAARAKIPALFSVGLMDNISPPSTVFAAYNYYAGPKEIRIYPYNNHEGGGSFQAVEQVKFLKKLFEKG
For B2, in data set [1], the “Activity in the first TWEEN®-20 wash” value is reported as 5%, the “Activity retained on hair after 4 TWEEN® 20 washes” value came to 1%, the Activity unbound came out at 103% and the “100% activity (hydrolase activity added to the tube)” value turned out to be 148 µmol/min.
